Reference: US20060294618A1 (CORNELL RESEARCH FOUNDATION, published 2006)

T1: TEV-HAT VPg, yeast two-hybrid bait fusion protein expressed from pEG202 (Tobacco etch virus, strain HAT, UniProt P0A7C2 1-202; P04517 1850-2037)
T1 sequence (looked up): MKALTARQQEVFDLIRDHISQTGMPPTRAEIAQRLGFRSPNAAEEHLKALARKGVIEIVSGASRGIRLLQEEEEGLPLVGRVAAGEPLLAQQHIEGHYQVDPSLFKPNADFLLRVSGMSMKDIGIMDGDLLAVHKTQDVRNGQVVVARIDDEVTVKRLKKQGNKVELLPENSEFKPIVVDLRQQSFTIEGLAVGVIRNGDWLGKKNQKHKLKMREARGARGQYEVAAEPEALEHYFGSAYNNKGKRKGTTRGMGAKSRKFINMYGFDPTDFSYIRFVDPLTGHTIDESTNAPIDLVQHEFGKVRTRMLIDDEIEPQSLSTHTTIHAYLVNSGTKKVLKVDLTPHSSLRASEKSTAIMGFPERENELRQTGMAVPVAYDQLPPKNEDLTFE

T2: GST-VPgHAT (Tobacco etch virus, strain HAT, UniProt P04517 1850-2037)
T2 construct: Immobilized on glutathione-Sepharose 4B beads; also called TEV-HAT VPg (GST fusion); not shown: glutathione S-transferase (GST)
T2 sequence (looked up): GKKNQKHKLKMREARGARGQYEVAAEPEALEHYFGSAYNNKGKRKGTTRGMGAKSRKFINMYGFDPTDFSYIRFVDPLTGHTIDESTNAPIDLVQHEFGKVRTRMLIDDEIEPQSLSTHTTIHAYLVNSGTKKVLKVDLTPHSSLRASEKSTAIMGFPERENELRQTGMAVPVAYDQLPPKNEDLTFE


Key:
[1] = biological target: T1, TEV-HAT VPg, yeast two-hybrid bait …; assay: yeast two-hybrid, beta-galactosidase assay
Source text: Bait plasmid pEG202 was used to express the fusion protein TEV-HAT VPg. The prey plasmid pJG4-5 was used to express pepper eIF4E. pEG202: Pto and PJG4-5:AvrPto were served as a positive control.

[2] = biological target: T2, GST-VPgHAT; assay: GST pull-down, 35S-labeled in vitro-translated eIF4E
Procedure: The input protein panel represents equivalent amounts of GST, GST-VPgHAT, and GST-VPgNW used in the pull-downs assay and 20% of in vitro-translated eIF4Es.
GST, GST-VPgHAT, and GST-VPgNW proteins were bound to 10 μl GST-Sepharose beads and resuspended in 195 μl IPAB-gelatin buffer (20 mM HEPES pH7.8, 150 mM KCl, 0.1% gelatin, 0.1% Triton X-100, 0.1% NP-40, 5 mM MgCl₂, 2 mM DTT). TnT translation products (5 μl) were added to prepared GST fusion Sepharose, mixed by end-over rotation at 4° C. for overnight, and washed 3× with 1×PBS buffer containing 2 mM DTT. The Sepharose beads were resuspended in 20 μl SDS-PAGE loading buffer and incubated for 2 min at 100° C. Released proteins were separated by SDS-PAGE. Following electrophoresis, gels were fixed, dried, and exposed to a phosphorimaging screen.

Binder	binding result [1]	binding result [2]
eIF4E-234 mutant translation initiation factor eIF4E (Capsicum chinense PI 159234, pvr1 allele), yeast two-hybrid prey fusion expressed from pJG4-5 (other, not shown: fusion partner encoded by prey plasmid pJG4-5) MATAEMEKTTTFDEAEKVKLNANEADDEVEEGEIVEETDDTTSYLSKEIAAKHPLEHSWTFWFDNTVAKSRQAAWGSSLRNVYTFSTVEDFWGAYNNIHHPSKLVVRADLHCFKHKIEPKWEDPVCANGGTWKMSFSKGKSDTSWLYTLLAMIGHQFDHEDEICGAVVSVRGKGEKISLWTKNAANETAQVSIGKQWKQFLDYSDSVGFIFHDDAKRLDRNAKNRYTV	no binding	–
eIF4E-DEMP (pvr2^2 / pvr1^2), 35S-labeled, translated in vitro from pET16b (other, 35S-labeled (in vitro translation in reticulocyte lysate), also called DEMP (pvr1^2); resistant allele) MATAEMEKTTTFDEAEKVKLNANEADDEVEEGEIVEETDDTTSYLSKEIATKHPLEHSWTFWFDNPEAKSKQAAWGSSRRNVYTFSTVEDFWGAYNNIHHPSKLVVGANLHCFKHKIEPKWEDPVCANGGTWKMSFSKGKSDTSWLYTLLAMIGHQFDHEDEICGAVVSVRGKGEKISLWTKNAANETAQVSIGKQWKQFLDYSDSVGFIFHDDAKRLDRNAKNRYTV	–	no binding
eIF4E-234 (pvr1), 35S-labeled, translated in vitro from pET16b (other, 35S-labeled (in vitro translation in reticulocyte lysate), also called resistant allele) MATAEMEKTTTFDEAEKVKLNANEADDEVEEGEIVEETDDTTSYLSKEIAAKHPLEHSWTFWFDNTVAKSRQAAWGSSLRNVYTFSTVEDFWGAYNNIHHPSKLVVRADLHCFKHKIEPKWEDPVCANGGTWKMSFSKGKSDTSWLYTLLAMIGHQFDHEDEICGAVVSVRGKGEKISLWTKNAANETAQVSIGKQWKQFLDYSDSVGFIFHDDAKRLDRNAKNRYTV	–	no binding
eIF4E-YY (pvr2^1 / pvr1^1), 35S-labeled, translated in vitro from pET16b (other, 35S-labeled (in vitro translation in reticulocyte lysate), also called YY (pvr1^1); resistant allele) MATAEMEKTTTFDEAEKVKLNANEADDEVEEGEIVEETDDTTSYLSKEIATKHPLEHSWTFWFDNPEAKSKQAAWGSSRRNVYTFSTVEDFWGAYNNIHHPSKLVVGADLHCFKHKIEPKWEDPVCANGGTWKMSFSKGKSDTSWLYTLLAMIGHQFDHEDEICGAVVSVRGKGEKISLWTKNAANETAQVSIGKQWKQFLDYSDSVGFIFHDDAKRLDRNAKNRYTV	–	no binding
